Legend:
alpha-thrombin = alpha-thrombin (bovine, UniProt P00735;P00735 318-366;367-625); test: ITC
human thrombin = human thrombin (human, UniProt P00734;P00734 328-363;364-622); test: ITC

B1: thrombin-binding DNA aptamer (15-mer, Bock et al.) (structured_DNA)
DNA: GGTTGGTGTGGTTGG
For B1, the Kd (alpha-thrombin) was 111 nM and the binding result (human thrombin) was “binds”.

Source: publication PMC3107735
